“And” between values parts separate entries of the source, which are not always exact repeats. Identical values can stand only once.
What was measured:
[1] = target: T1, SARS-COV-2 RBD-MMH (SARS-COV-2 RBD extracellular domain with C-terminal myc-myc-hexahistidine tag) (SARS-CoV-2); test: SPR 37C, mAb captured, pH 7.4 vs pH 6.0
[2] = target: SARS-CoV-2 RBD.mmh (Spike amino acids Arg319-Phe541 with C-terminal myc-myc-6-Histidine tag) (SARS-CoV-2, UniProt P0DTC2 319-541)
[3] = target: T1, SARS-COV-2 RBD-MMH (SARS-COV-2 RBD …)

Binder	t½ Ratio of pH 7.4 to pH 6.0 [1]	IC50 [2]	koff [3]	t½ at pH 6.0 [3]	t½ at pH 7.4 [3]
mAb14289 (antibody, V domains shown) VH: QVQLVQSGPEVKKPGASVKVSCKASGYTFTSYAISWVRQAPGQGLEWMGWISAYNGNTNYAQKLQGRVTMTTDTFTSTAYMELRSLRSDDTAVYYCAVPADHITFDYWGQGTLVTVSS VL: EIVLTQSPGTLSLSPGERATLSCRASQSVSSYLAWYQQKPGQAPRLLIHGASSRATGIPDRFSGSGSGTDFTLTISRLEPEDFAVYYCQQYGSSFLTFGGGTKVEIKR	1.5	0.378 nM	0.00272 s⁻¹	4.2 min	6.2 min
mAb14284 (antibody, V domains shown) VH: QITLKESGPTLVKPTQTLTLTCTFSGFSFSTSGVGVGWIRQPPGKTLEWLALIYWDDDKRYSPSLKSRLTITKDTSKNQVVLTMTNMDPVDTATYFCAHHGIPTIFGYWGQGALVTVSS VL: QSALTQPASVSGSPGQSITISCTGTSSDLGVFNYVSWYQQHPGKAPKLMIYEVTNRPSGVSNRFSGSKSGNTASLTISGLQAEDEADYYCSSYTTSSTVFGGGTKLTVLG	0.9	0.367 nM	0.000574 s⁻¹	20.1 min	18.5 min
mAb14256 (antibody, V domains shown) VH: QVQLQESGPGLVKPSETLSLTCTVSGGSISSHYWSWIRQPPGKGLEWIGYIYYSGSSNYNPSLKSRVTISVDTSKNQFSLKLNSVTAADTAVYYCARHYDILTGFDWFDPWGQGTLVTVSS VL: QSVLTQPPSVSGAPGQRVTISCTGSSSNIGTHYDVHWYQQLPGTAPKLLIYGNSNRPSGVPDRFSGSKSGTSASLAITGLQAEDEADYYCQSFDNSLTAPYVFGTGTKVTVLG	0.8	0.48 nM	0.00955 s⁻¹	1.2 min	1 min
mAb14258 (antibody, V domains shown) VH: QLQLQESGPGLVKPSETLSLICTGSGDSISSSHYYWGWIRQPPGKGLEWIGSTYFSGSTYYNPSLKSRVSISVDTSKNQVSLKLISVTAADTAVYYCAREMGATLGDYWGPGTLVTVSS VL: QSVLTQPPSASGTPGQRVTISCSGSSSNIGNNYVYWYQQFPGTTPRLLIYRNNERPSGVPDRFSGSKSGTSASLVISGLRSEDEADYYCAAWDDSLSAHYVFGTGTKVTVLG	0.3	0.121 nM		21.1 min	5.4 min
mAb14255 (antibody, V domains shown) VH: QVQLQESGPGLVKPSETLSLTCTVSGGSISGYYWSWIRQPPGKGLDWIGYIYYRGNTNYNPSLKSRVTISVDTSNNQFSLKLSSVTAADTAVYYCARYGEGYGDASGYHFDYWGQGTLVTVSS VL: QSALTQPASVSGSPGQSITISCTGTSSDVGSYNLVSWYQQHPGKAPKLMIYEDSKRPSGVANPFSGSKSGNTASLTISGLQAEDEADYYCSSYAGSSTWVFGGGTKLTVLG	1	0.157 nM	0.00513 s⁻¹	2.3 min	2.3 min
mAb14285 (antibody, V domains shown) VH: QVQLVQSGAEVKKPGASVKVSCKASGYTFTGYFIHWVRQAPGQGLEWMGWISPISGGTNYAQKFQGRVTVTRDTSITTAYMELSRLTSDDTAVYHCAREGGTWKGDFDYWGQGTLVTVSS VL: QSALTQPASVSGSPGQSITISCTGTSSDVESYNLVSWYQQHPGKAPKLMIYEGSKRPSGVSNRFSGSKSGNTASLTISGLQAEDEADYYCSSYAGSSTWVFGGGTKLTVLG	0.5	1.7 nM	0.0144 s⁻¹	0.8 min	0.4 min
mAb14292 (antibody, V domains shown) VH: EVQLVESGGGLVQPGGSLRLSCVASGFAFSTYEMNWVRQAPGKGLEWVSYISSSGSTIYYADSVKGRLTISRDNVKNSLYLQMNSLRVEDTAIYYCARDAIRNNDILTDPATFDPWGQGTLVTVSS VL: not shown	1.3	0.254 nM	0.00141 s⁻¹ and 0.00178 s⁻¹	6.5 min	8.2 min
mAb14257 (antibody, V domains shown) VH: EVQLVESGGGLVQPGGSLRLSCAASGFTVSRSYMNWVRQAPGKGLEWVSVVFTGGTTKHTDSVKGRFTISRDNSMNTLYLQMNSLRPEDTAVYYCARVAIVETTGAFDIWGQGTMVTVSS VL: QSVLTQPPSVSGAPGQRVTISCTGTSSNIGADFDVHWYQQFPGTAPKLLIYGHTNRPSGIPDRFSGSKSGTSASLAITGLQAEDEADYYCQSYDSSLSGSVVFGGGTKLTVLG	1.1	0.365 nM	0.00842 s⁻¹	1.4 min	1.5 min
mAb14282 (antibody, V domains shown) VH: QVQLVQSGAEVKKPGASVKVSCKASGYIFTDHYMHWVRQAPGQGLEWMGWINPNSGATNYAQNFQGRVTMTRDTSIITVYMELSRLRSDDTAVYYCARDSSPYMIRYTMDVWGQGTTITVSS VL: QSALTQPASVSGSPGQSITISCTGTSSDVGSYNLVSWYQQHPGKAPKLMIYELTKRPSGVSNRFSGSKSGNTASLTISGLQAEDEADYYCSSYRGSVTDVVFGGGTKLTVLG	0.8	0.502 nM	0.00985 s⁻¹	1.2 min	0.9 min
mAb14281 (antibody, V domains shown) VH: QVQLVQSGADVKKPGASVKVSCKTSGYIFTGYYIHWVRQAPGQGLEWMGWINPNSGGTNSAQKFQGRVTMTRDTSISTVYMELSRLRSDDTAVYYCAKSNSFSVLDYNFDYWGQGTLVTVSS VL: SSELTQDPAVSVALGQTVRITCQGDSLRSYYASWYQQKPGQAPVLVIYDKNNRPSGIPDRFSGSSSGNTASLTITGAQAEDEADYYCNSRDSSRNHLVVFGGGTKLTVLG	1.1	0.397 nM	0.00734 s⁻¹	1.6 min	1.8 min
mAb14283 (antibody, V domains shown) VH: QVQLQESGPGLVKPSGTLSLTCDVSGGSISSNNWWSWVRQRPGKGLQWIGEIYHNENTNYNPSLKSRVIMSIDKSKNQFSLKLTSVTAADTAVYYCARGDVLDWFDPWGQGTLVTVSS VL: QSALTQPASVSGSPGQSTTISCTGTSSDVGGYNYVSWYQQYPGKAPKLMIYDVTNRPSGVSHRFSGSKSGNTASLTISGLQAEDEADYYCSSYTSSSTVIFGGGTKLTVLG	1.2	0.373 nM	0.002 s⁻¹	5.8 min	6.9 min
mAb14286 (antibody, V domains shown) VH: QVQLVQSGAEVKKPGASVKVSCKASGYTFTDYFIHWVRQAPGQGLEWMGWINPTSGGTNYAQKFRGRVTMTRDTSISTAYVELSRLRSDDTALYYCARDLPFYSDTKQFDYWGQGTLVTVSS VL: QSALTQPASVSGYPGQSITISCTGTSSDVGGYNYVSWYQQHPGKAPKLMIFDVSNRPSGVSNRFSGSKSGNTASLTFSGLQAEDEADYYCSSYTSSSTLVFGGGTKLTVLG	1	0.641 nM	0.00999 s⁻¹	1.2 min	1.2 min
mAb14280 (antibody, V domains shown) VH: QVQLVQSGAEVKKPGASVRVSCKASGYTFTGNYIHWVRQAPGQGLEWMAWINPNSGGKNYAQKFQGRVTLTRDTSVNTAYMELSRLRSDDTAMYYCARDVNYNILTGPGGLWGQGTLVTVSS VL: QSALTQPPSASGSPGQSVTISCTGTSSDVGGYNFVSWYQQHPGKAPKLMIYEVSKRPSGVPDRFSGSKSGNTASLTVSGLQAEDEADYYCSSYAGSNNFVFGTGTKVTVLG	0.8	1.74 nM	0.019 s⁻¹	0.6 min	0.5 min

From patent US20260069689A1 (Regeneron, published 2026)
